Reference: patent publication CN116178545A (GUANGDONG FEIPENG PHARMACEUTICAL CO LTD, dated 2023)
Substitutions are numbered along the chain they refer to.

T1: 重组人ICOSLG蛋白 (human, UniProt O75144 19-258)
T1 construct: The words 携带hFc标签的 stand before the first protein of the list; also called Acrobiosystem Cat.B72-H5254
T1 sequence (looked up): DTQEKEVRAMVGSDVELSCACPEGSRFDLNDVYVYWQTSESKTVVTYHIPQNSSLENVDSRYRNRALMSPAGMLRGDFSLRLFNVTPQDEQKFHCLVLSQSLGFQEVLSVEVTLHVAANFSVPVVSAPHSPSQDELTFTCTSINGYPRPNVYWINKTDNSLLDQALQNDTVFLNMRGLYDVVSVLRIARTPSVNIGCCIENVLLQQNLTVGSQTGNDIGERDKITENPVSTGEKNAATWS

T2: 重组人ICOS蛋白 (human, UniProt Q9Y6W8 21-140)
T2 construct: The words 携带hFc标签的 stand before the first protein of the list; also called Acrobiosystem Cat.ICS-H5250
T2 sequence (looked up): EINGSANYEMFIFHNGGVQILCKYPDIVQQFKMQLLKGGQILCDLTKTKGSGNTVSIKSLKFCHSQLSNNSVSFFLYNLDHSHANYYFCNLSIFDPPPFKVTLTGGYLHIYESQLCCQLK

T3: 重组人CD276蛋白 (human, UniProt Q5ZPR3-2 29-245)
T3 construct: The words 携带hFc标签的 stand before the first protein of the list; also called B7-H3; Acrobiosystem Cat.B73-H5253
T3 sequence (looked up): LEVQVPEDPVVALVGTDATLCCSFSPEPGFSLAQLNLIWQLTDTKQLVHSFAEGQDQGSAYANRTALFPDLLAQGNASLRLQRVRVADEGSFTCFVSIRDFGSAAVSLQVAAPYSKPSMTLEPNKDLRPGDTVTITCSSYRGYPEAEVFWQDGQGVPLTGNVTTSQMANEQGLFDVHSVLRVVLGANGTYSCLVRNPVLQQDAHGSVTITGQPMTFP

T4: 重组人CD86蛋白 (human, UniProt P42081 26-247)
T4 construct: The words 携带hFc标签的 stand before the first protein of the list; also called Acrobiosystem Cat.CD6-H5257
T4 sequence (looked up): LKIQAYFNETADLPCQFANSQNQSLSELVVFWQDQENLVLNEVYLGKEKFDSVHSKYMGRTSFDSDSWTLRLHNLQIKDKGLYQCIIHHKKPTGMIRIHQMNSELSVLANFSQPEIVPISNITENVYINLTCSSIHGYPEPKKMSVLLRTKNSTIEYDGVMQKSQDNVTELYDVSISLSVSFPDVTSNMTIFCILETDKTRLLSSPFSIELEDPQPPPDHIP

T5: 重组人PD-L2蛋白 (human, UniProt Q9BQ51 20-219)
T5 construct: The words 携带hFc标签的 stand before the first protein of the list; also called Acrobiosystem Cat.PD2-H5251
T5 sequence (looked up): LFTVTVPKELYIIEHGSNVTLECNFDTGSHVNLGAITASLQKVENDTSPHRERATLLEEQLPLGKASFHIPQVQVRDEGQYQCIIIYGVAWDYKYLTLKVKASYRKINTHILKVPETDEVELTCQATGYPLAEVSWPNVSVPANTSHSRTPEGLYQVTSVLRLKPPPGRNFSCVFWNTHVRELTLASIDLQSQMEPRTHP

B1: 176L1H2 (antibody, V domains shown)
VH: QVQLQESGPGLVKPSETLSLTCAVYGDSITSGYWNWIRKPPGKKLEYIGYISYTGSTYQNPSLKSRITMSRDTSKNQYYLKLSSVTAADTAVYYCARSRAWIRTYFDYWGQGTLVTVSS
VL: EIVLTQSPDFQSVTPKEKVTITCSVSSSISSSNLHWYQQKPDQSPKLWIYGTSNLASGVPSRFSGSGSGTDYTLTINSLEAEDAATYYCQQWSSYPLTFGQGTKLEIKR
notes: Whole humanized mAb expressed in 293 cells; detected with anti-human IgG; also called 抗人PD-L1人源化抗体176L1H2
B2: 176L1H1 (antibody, V domains shown)
VH: B1 VH with K44G
VL: B1 VL
notes: Whole humanized mAb expressed in 293 cells, protein A purified; hIgG1 isotype control; detected with anti-human IgG; also called 抗人PD-L1人源化抗体176L1H1
B3: 176L1H3 (antibody, V domains shown)
VH: B1 VH with M69F
VL: B1 VL
notes: Whole humanized mAb expressed in 293 cells; detected with anti-human IgG; also called 抗人PD-L1人源化抗体176L1H3
B4: 176L6H5 (antibody, V domains shown)
VH: B1 VH with Q1E, K44G, I48M, M69F, V92T
VL: B1 VL with W48L, Y72F
notes: Whole humanized mAb expressed in 293 cells; detected with anti-human IgG; also called 抗人PD-L1人源化抗体176L6H5
B5: 176L2H1 (antibody, V domains shown)
VH: B1 VH with K44G
VL: B1 VL with L47P
notes: Whole humanized mAb expressed in 293 cells; detected with anti-human IgG; also called 抗人PD-L1人源化抗体176L2H1
B6: 176L3H2 (antibody, V domains shown)
VH: B1 VH
VL: B1 VL with L47P, T73S
notes: Whole humanized mAb expressed in 293 cells; detected with anti-human IgG; also called 抗人PD-L1人源化抗体176L3H2
B7: 176L2H2 (antibody, V domains shown)
VH: B1 VH
VL: B1 VL with L47P
notes: Whole humanized mAb expressed in 293 cells; detected with anti-human IgG; also called 抗人PD-L1人源化抗体176L2H2
B8: 176L2H3 (antibody, V domains shown)
VH: B1 VH with M69F
VL: B1 VL with L47P
notes: Whole humanized mAb expressed in 293 cells; detected with anti-human IgG; also called 抗人PD-L1人源化抗体176L2H3
B9: F016-870-hIgG1 (antibody, V domains shown)
VH: EVQLQESGPSLVKPSQTLSLTCSVTGDSITSGYWNWIRKFPGNKLEYMGYISYTGSTYQNPSLKSRISFTRDTSKNQYYLQLSSVTTEDTATYYCARSRAWIRTYFDYWGQGTTLTVSS
VL: EIVLTQSPALMAASPGEKVTITCSVSSSISSSNLHWYQQKSETSPKPWIYGTSNLASGVPVRFSGSGSGTSYSLTISSMEAEDAATYYCQQWSSYPLTFGAGTKLELKR

biological target: T6, 人PD-L1 (on cells) (human, UniProt Q9NZQ7 19-290); assay: flow cytometry on IFNγ-stimulated A375 cells
T6 construct: whole, on cells; One molecule for human PD-L1 on CHO-hPD-L1, on IFNγ-stimulated A375 and on CHO-hPD-L1-OKT3 cells; the cell is named under assay; also called CHO-hPD-L1稳定细胞株; 稳定表达人PD-L1的CHO
T6 sequence (Q9NZQ7 19-290): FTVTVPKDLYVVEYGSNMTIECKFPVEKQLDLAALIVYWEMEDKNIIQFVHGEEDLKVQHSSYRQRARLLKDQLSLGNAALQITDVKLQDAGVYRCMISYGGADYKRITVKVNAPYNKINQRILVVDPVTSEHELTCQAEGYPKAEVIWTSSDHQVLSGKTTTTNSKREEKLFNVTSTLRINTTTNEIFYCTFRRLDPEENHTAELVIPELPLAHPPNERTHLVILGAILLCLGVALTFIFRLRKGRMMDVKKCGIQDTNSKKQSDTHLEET

B1 was tested. Which EC50 did it give?
The EC50 was about 0.2 nM.

How did the EC50 turn out when B2 was run?
The EC50 was about 0.2 nM.

For B3, which EC50 is on record?
Its EC50 is about 0.2 nM.

With B4 as the binder, how does the EC50 read?
Its EC50 is about 0.2 nM.

How did the EC50 turn out when B5 was run?
The EC50 was about 0.2 nM.

Which EC50 does the source give for B6 here?
The EC50 was about 0.2 nM.

How did the EC50 turn out when B7 was run?
Its EC50 is about 0.2 nM.

For B8, which EC50 is on record?
Its EC50 is about 0.2 nM.

biological target: T7, 重组人PD-1蛋白(自产) (human, UniProt Q15116 25-167); assay: ELISA, protein coated at 1μg/ml
T7 construct: The words 携带hFc标签的 stand before the first protein of the list
T7 sequence (Q15116 25-167): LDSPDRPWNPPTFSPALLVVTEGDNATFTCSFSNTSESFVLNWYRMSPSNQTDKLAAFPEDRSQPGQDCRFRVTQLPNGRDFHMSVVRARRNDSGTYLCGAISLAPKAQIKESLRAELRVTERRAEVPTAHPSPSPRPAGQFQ

Does B1 bind?
Result: no binding (tested: 10μg/ml)

Does B2 bind?
Result: no binding (tested: 10μg/ml)

Does B3 bind?
Result: no binding (tested: 10μg/ml)

Does B4 bind?
Result: no binding (tested: 10μg/ml)

Does B5 bind?
Result: no binding (tested: 10μg/ml)

Does B6 bind?
Result: no binding (tested: 10μg/ml)

Does B7 bind?
Result: no binding (tested: 10μg/ml)

Does B8 bind?
Result: no binding (tested: 10μg/ml)

biological target: T1, 重组人ICOSLG蛋白; assay: ELISA, protein coated at 1μg/ml

Does B1 bind?
Result: no binding (tested: 10μg/ml)

Does B2 bind?
Result: no binding (tested: 10μg/ml)

Does B3 bind?
Result: no binding (tested: 10μg/ml)

Does B4 bind?
Result: no binding (tested: 10μg/ml)

Does B5 bind?
Result: no binding (tested: 10μg/ml)

Does B6 bind?
Result: no binding (tested: 10μg/ml)

Does B7 bind?
Result: no binding (tested: 10μg/ml)

Does B8 bind?
Result: no binding (tested: 10μg/ml)

biological target: T8, 重组人CD28蛋白 (human, UniProt P10747 19-152); assay: ELISA, protein coated at 1μg/ml
T8 construct: The words 携带hFc标签的 stand before the first protein of the list; also called Acrobiosystem Cat.CD8-H525a

Does B1 bind?
Result: no binding (tested: 10μg/ml)

Does B2 bind?
Result: no binding (tested: 10μg/ml)

Does B3 bind?
Result: no binding (tested: 10μg/ml)

Does B4 bind?
Result: no binding (tested: 10μg/ml)

Does B5 bind?
Result: no binding (tested: 10μg/ml)

Does B6 bind?
Result: no binding (tested: 10μg/ml)

Does B7 bind?
Result: no binding (tested: 10μg/ml)

Does B8 bind?
Result: no binding (tested: 10μg/ml)

biological target: T2, 重组人ICOS蛋白; assay: ELISA, protein coated at 1μg/ml

Does B1 bind?
Result: no binding (tested: 10μg/ml)

Does B2 bind?
Result: no binding (tested: 10μg/ml)

Does B3 bind?
Result: no binding (tested: 10μg/ml)

Does B4 bind?
Result: no binding (tested: 10μg/ml)

Does B5 bind?
Result: no binding (tested: 10μg/ml)

Does B6 bind?
Result: no binding (tested: 10μg/ml)

Does B7 bind?
Result: no binding (tested: 10μg/ml)

Does B8 bind?
Result: no binding (tested: 10μg/ml)

biological target: T3, 重组人CD276蛋白; assay: ELISA, protein coated at 1μg/ml

Does B1 bind?
Result: no binding (tested: 10μg/ml)

Does B2 bind?
Result: no binding (tested: 10μg/ml)

Does B3 bind?
Result: no binding (tested: 10μg/ml)

Does B4 bind?
Result: no binding (tested: 10μg/ml)

Does B5 bind?
Result: no binding (tested: 10μg/ml)

Does B6 bind?
Result: no binding (tested: 10μg/ml)

Does B7 bind?
Result: no binding (tested: 10μg/ml)

Does B8 bind?
Result: no binding (tested: 10μg/ml)

biological target: T4, 重组人CD86蛋白; assay: ELISA, protein coated at 1μg/ml

Does B1 bind?
Result: no binding (tested: 10μg/ml)

Does B2 bind?
Result: no binding (tested: 10μg/ml)

Does B3 bind?
Result: no binding (tested: 10μg/ml)

Does B4 bind?
Result: no binding (tested: 10μg/ml)

Does B5 bind?
Result: no binding (tested: 10μg/ml)

Does B6 bind?
Result: no binding (tested: 10μg/ml)

Does B7 bind?
Result: no binding (tested: 10μg/ml)

Does B8 bind?
Result: no binding (tested: 10μg/ml)

biological target: T9, 重组人CTLA-4蛋白 (human, UniProt P16410 37-162); assay: ELISA, protein coated at 1μg/ml
T9 construct: The words 携带hFc标签的 stand before the first protein of the list; also called Acrobiosystem Cat.CT4-H5255
T9 sequence (P16410 37-162): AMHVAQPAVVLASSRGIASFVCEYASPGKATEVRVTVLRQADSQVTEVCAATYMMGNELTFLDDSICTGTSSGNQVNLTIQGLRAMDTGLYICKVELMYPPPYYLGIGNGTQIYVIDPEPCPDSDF

Does B1 bind?
Result: no binding (tested: 10μg/ml)

Does B2 bind?
Result: no binding (tested: 10μg/ml)

Does B3 bind?
Result: no binding (tested: 10μg/ml)

Does B4 bind?
Result: no binding (tested: 10μg/ml)

Does B5 bind?
Result: no binding (tested: 10μg/ml)

Does B6 bind?
Result: no binding (tested: 10μg/ml)

Does B7 bind?
Result: no binding (tested: 10μg/ml)

Does B8 bind?
Result: no binding (tested: 10μg/ml)

biological target: T5, 重组人PD-L2蛋白; assay: ELISA, protein coated at 1μg/ml

Does B1 bind?
Result: no binding (tested: 10μg/ml)

Does B2 bind?
Result: no binding (tested: 10μg/ml)

Does B3 bind?
Result: no binding (tested: 10μg/ml)

Does B4 bind?
Result: no binding (tested: 10μg/ml)

Does B5 bind?
Result: no binding (tested: 10μg/ml)

Does B6 bind?
Result: no binding (tested: 10μg/ml)

Does B7 bind?
Result: no binding (tested: 10μg/ml)

Does B8 bind?
Result: no binding (tested: 10μg/ml)

biological target: T10, hPD-L1-his (human, UniProt Q9NZQ7 19-238); assay: BLI (ForteBIO), hPD-L1-his on anti-Penta-HIS sensor
T10 construct: extracellular domain; also called 携带his标签的人PD-L1胞外区重组蛋白; not shown: his tag
T10 sequence (Q9NZQ7 19-238): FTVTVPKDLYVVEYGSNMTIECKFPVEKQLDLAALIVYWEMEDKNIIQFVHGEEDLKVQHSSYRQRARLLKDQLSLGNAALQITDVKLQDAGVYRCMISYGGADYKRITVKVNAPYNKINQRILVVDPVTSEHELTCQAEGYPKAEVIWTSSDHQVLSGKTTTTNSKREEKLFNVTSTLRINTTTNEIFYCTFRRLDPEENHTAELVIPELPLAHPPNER

How did the Kd turn out when B4 was run?
Its Kd is 0.0302 nM.

With B9 as the binder, how does the Kd read?
The Kd was under 0.001 nM.

biological target: T11, 小鼠PD-L1 (on CHO cells) (mouse, UniProt Q9EP73 19-290); assay: flow cytometry on CHO-mPD-L1 cells
T11 construct: whole, on cells; also called CHO-mPD-L1稳定细胞株; 稳定表达全长小鼠PD-L1的CHO
T11 sequence (Q9EP73 19-290): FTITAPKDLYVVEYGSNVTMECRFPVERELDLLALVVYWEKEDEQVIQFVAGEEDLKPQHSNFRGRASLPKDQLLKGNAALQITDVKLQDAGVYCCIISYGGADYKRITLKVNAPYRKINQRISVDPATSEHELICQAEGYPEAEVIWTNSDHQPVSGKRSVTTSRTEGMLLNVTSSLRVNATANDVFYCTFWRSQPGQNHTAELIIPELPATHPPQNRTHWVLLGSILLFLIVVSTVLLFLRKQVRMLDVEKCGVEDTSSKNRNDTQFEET

Does B1 bind?
Result: no binding (tested: 20μg/ml)

Does B2 bind?
Result: no binding (tested: 20μg/ml)

Does B3 bind?
Result: no binding (tested: 20μg/ml)

Does B4 bind?
Result: no binding (tested: 20μg/ml)

Does B5 bind?
Result: no binding (tested: 20μg/ml)

Does B6 bind?
Result: no binding (tested: 20μg/ml)

Does B7 bind?
Result: no binding (tested: 20μg/ml)

Does B8 bind?
Result: no binding (tested: 20μg/ml)
